Source: paper PMC3491057, “Proliferating Cell Nuclear Antigen (PCNA) Interactions in Solution Studied by NMR” (PLoS ONE, 2012)
No end group written: not given here.

What was measured:
Details in all cases: both partners purified
[1] = molecular target: Proliferating Cell Nuclear Antigen (PCNA), human (human); experiment: NMR titration; 280 µM U-2H,15N-PCNA titrated with a 7.5 mM stock of ING1^22 up to a 7.8-fold molar excess; CSP of H44 fitted to one set of sites; PBS pH 7.0, 35°C
[2] = molecular target: T1, Proliferating Cell Nuclear Antigen (PCNA), human (human, homotrimeric ring; GlySerHis tag remnant before Met1 left out; 2H/15N(/13C) labelled for NMR, natural abundance for ITC); experiment: ITC; PCNA (11.2–13.4 µM protomers) in the cell titrated with peptide (117 µM p21^20, 363 p21^12); PBS pH 7.0, 30°C; single set of identical sites
T1 sequence (chain, as listed by the source): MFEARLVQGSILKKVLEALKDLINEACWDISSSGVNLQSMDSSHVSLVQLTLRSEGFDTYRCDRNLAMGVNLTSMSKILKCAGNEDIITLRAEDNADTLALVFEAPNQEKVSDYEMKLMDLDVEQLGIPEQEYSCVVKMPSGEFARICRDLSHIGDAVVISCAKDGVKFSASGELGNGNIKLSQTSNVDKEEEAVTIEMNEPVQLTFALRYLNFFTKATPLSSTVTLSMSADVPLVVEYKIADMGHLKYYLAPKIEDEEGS

[3] = molecular target: T1, Proliferating Cell Nuclear Antigen …; experiment: ITC; PCNA (11.2–13.4 µM protomers) in the cell titrated with peptide (117 µM p21^20, 363 p21^12); PBS pH 7.0, 35°C; single set of identical sites

Proliferating Cell Nuclear Antigen (PCNA), human (human), sequence (chain, as listed by the source): as above

Binder	KD with CSPmax set equal to the CSP of PCNA bound to p21^20 [1]	Kd [1]	Kd [2]	stoichiometry N [2]	Kd [3]
PANGEQLHLVNYVEDTLDSIES (not fully specified) [ING1 PIP-box fragment 4-25 (ING1^22)]	12500 ± 500 µM	2000 ± 700 µM			
KRRQTSMTDFYH (source: lyophilized peptide) [p21 fragment 141-152 (p21^12), shorter PIP-box peptide of the Cyclin-dependent kinase inhibitor 1]			0.64 µM	1 p21 ligand per PCNA protomer	1.1 µM
